According to paper PMC8467750:

What was measured:
[1] = target: histamine H2 receptor fused C-terminally to the small fragment of NanoLuc (H2R–NlucC) (human) (UniProt P25021); test: split reporter (BiFC, NanoBiT); split-NanoLuc mini-G protein recruitment assay in live HEK293T cells transiently co-expressing receptor–NlucC and NlucN–mini-G; recruitment upon histamine (serial dilutions), 37 °C, L-15 medium with 10 mM HEPES, furimazine; AUC of 45 min traces normalised to 100 µM histamine in the canonical system (H2R–mGs or H4R–mGsi, 100%) and L-15 (0%); N = 3, each in triplicate
UniProt P25021, sequence (P25021 whole entry, the tested form may be a part): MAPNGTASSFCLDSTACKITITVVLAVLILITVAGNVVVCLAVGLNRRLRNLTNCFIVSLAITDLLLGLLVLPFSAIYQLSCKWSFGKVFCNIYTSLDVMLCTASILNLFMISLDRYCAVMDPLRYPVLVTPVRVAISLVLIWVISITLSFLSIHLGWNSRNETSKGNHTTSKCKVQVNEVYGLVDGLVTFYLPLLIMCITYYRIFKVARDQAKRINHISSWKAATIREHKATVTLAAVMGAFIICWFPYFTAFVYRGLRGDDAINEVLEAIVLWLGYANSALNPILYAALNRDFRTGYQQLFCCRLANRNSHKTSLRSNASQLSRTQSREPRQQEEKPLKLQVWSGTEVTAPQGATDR

[2] = target: histamine H4 receptor fused C-terminally to the small fragment of NanoLuc (H4R–NlucC) (human) (UniProt Q9H3N8); test: as above
UniProt Q9H3N8, sequence (Q9H3N8 whole entry, the tested form may be a part): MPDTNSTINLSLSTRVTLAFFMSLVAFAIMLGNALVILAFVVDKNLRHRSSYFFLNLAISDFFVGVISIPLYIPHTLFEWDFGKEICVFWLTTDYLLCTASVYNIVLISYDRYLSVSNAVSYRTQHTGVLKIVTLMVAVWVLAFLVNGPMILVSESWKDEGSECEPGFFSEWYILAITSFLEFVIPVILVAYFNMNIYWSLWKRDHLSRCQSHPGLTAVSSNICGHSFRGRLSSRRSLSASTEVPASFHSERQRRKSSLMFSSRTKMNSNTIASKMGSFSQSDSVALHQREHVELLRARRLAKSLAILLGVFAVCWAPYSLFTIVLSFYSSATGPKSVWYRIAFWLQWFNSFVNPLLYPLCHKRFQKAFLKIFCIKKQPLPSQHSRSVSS

| Substance | Emax of histamine (mini-G recruitment) [1] | pEC50 of histamine (mini-G recruitment) [1] | Emax of histamine (mini-G recruitment) [2] | pEC50 of histamine (mini-G recruitment) [2] |
| --- | --- | --- | --- | --- |
| mini-G protein mGsi fused N-terminally to the large fragment of NanoLuc (NlucN–mGsi) | 26.8% | 5.3 | 100% | 6.6 |
| mini-G protein mGs fused N-terminally to the large fragment of NanoLuc (NlucN–mGs) | 100% | 6.86 | -13.5% |  |
| mini-G protein mGsq fused N-terminally to the large fragment of NanoLuc (NlucN–mGsq) | 29.6% | 5.48 | 13.8% |  |
